Columns and labels:
[1] = test system: A549 cells; experiment: MTT cytotoxicity assay; format: cell-based, human; conditions: 0, 50, 100, 500 nM, 24 h, serum-free media
Procedure: MTT assay was performed on N3 IgG as a representative. A549 cells were seeded in 96-well plates (5,000 cell/well) and incubated. The cells were washed with serum-free media, and then treated with human mock IgG and N3 IgG of 0, 50, 100, 500 nM (in serum-free media). After 24-h incubation, MTT solution was added with 50 μg/well, followed by incubation for 4 h. After MTT solution was removed, the wells were treated with 100 ul of DMSO, and then the absorbance was measured at 570 nm.

[2] = test system: KRS level in the monocyte/macrophage cell membrane (RAW 264.7 cells); experiment: Western blotting of KRS in membrane and cytosol fractions after LN421 treatment; format: cell-based; conditions: 100 nM, 24 h, laminin 421 1 μg/ml
Procedure: RAW 264.7 cells (2×10^6 cell) were incubated for 18 hr, treated with 1 μg/ml of each laminin subtype in serum-free DMEM, and then harvested at 0 h, 12 h, and 24 h. RAW 264.7 cell protein was separated into cytosol and membrane fractions by using the ProteoExtract Subcellular Proteome Extraction Kit (Calbiotech, cat #539790). The obtained protein was electrophoresed, transferred onto PVDF membrane (Milipore), and blocked with 3% skim milk. Thereafter, KRS polyclonal antibody (rabbit, Neomics, Co. Ltd. #NMS-01-0005) was added, followed by incubation for 1 h. After the unbound antibodies were washed out, anti-rabbit secondary antibodies (ThermoFisher Scientific, #31460) were added, followed by incubation. After incubation with the secondary antibodies, film sensitization was carried out using ECL reagent as a substrate in a dark room. The sensitized bands were compared with standard molecule markers to identify bands corresponding to KRS sizes. Na+/K+ ATPase (Abcam) and tubulin (Sigma) antibody were used for plasma membrane and cytosol marker identification, respectively. RAW 264.7 cells were treated with laminin 421 (1 μg/ml) and antibody (100 nM), incubated for 24 h, and harvested. […]

[3] = test system: RAW 264.7 cells; experiment: Transwell migration assay of monocytes/macrophages with laminin 421; format: cell-based; conditions: 100 nM, 24 h, laminin 421 1 μg/ml
Procedure: The effect on immune cell migration and invasion was investigated using N3 IgG antibody as a representative among the antibodies constructed in Example 1 above. Specific experimental methods were as follows. Transwell (Corning, #3421-5 mm) was coated with gelatin (0.5 mg/ml), and then RAW 264.7 cells (1×10^5 cells/well) were seeded in the top chamber. Serum-free DMEM (500 μl) containing laminin 421 (1 μg/ml) was placed in the bottom chamber. The top chamber was treated with each antibody at 100 nM. After 24 h, immobilization with 70% methanol was carried out for 30 min, and then staining with 50% hematoxylin was carried out for 30 min. The non-migrating cells present on the upper part of the membrane were removed by cotton swabs, and then the membrane was taken and mounted on the slide. The migrating cells present on the bottom surface of the membrane were observed by a high-resolution microscope (FIG. 20A), and the cells were counted on the obtained images and plotted on the graph (FIG. 20B).

[4] = test system: A549 cells; experiment: Transwell cell migration assay (laminin); format: cell-based, human; conditions: 100 nM or 500 nM, 24 h, laminin-coated Transwell
Procedure: Cell migration was measured using a 24-well Transwell chamber with polycarbonate membrane (8.0 μm pore size, Costar) as disclosed in the prior art (Park, S. G. et al., Human lysyl-tRNA synthetase is secreted to trigger pro-inflammatory response, Proc. Natl. Acad. Sci. USA 102, 6356-6361 (2005)). In the Transwell chamber, the lower well was coated with 10 μg of laminin (in gelatin) and dried with UV. Thereafter, A549 cells were suspended in serum-free RPIM media, and then placed at a concentration of 1×10^5 cells per well in the upper chamber. The chamber was treated with N3 IgG or human mock IgG (control) at 100 nM or 500 nM, followed by incubation for 24 h. Thereafter, the chamber was washed twice with PBS, and treated with 70% MeOH (in PBS) for 30 min. The chamber was again washed twice with PBS, and treated with Hematoxylin solution for 30 min. The chamber was washed three times with DW, and the membrane in the chamber was cut and mounted on the slide glass.

[5] = biological target: T1, KRS (Homo sapiens, UniProt Q15046); experiment: Western blotting and immunoprecipitation of converted IgGs; format: binding; conditions: HCT116 cell lysate
T1 construct: endogenous in cells; host or cells: HCT116
T1 sequence (Q15046 whole entry): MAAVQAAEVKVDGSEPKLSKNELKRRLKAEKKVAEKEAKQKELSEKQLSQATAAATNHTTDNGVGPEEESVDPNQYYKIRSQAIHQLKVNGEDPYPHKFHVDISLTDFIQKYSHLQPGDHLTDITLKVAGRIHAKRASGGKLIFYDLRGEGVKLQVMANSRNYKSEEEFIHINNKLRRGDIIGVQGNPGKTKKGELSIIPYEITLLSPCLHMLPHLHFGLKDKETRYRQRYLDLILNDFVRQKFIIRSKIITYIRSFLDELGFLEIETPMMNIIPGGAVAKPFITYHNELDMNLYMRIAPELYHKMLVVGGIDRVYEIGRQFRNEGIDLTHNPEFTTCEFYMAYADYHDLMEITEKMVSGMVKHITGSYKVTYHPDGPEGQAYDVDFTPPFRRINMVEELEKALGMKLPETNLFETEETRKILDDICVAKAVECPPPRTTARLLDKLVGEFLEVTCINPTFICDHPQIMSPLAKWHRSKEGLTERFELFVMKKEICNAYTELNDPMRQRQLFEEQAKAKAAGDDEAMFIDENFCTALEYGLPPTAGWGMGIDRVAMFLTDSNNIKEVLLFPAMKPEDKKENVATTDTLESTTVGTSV

[6] = biological target: T2, KRS 1-207 aa (Homo sapiens, UniProt Q15046); experiment: SPR (Biacore 2000) binding of IgGs to immobilized KRS; conditions: immobilized KRS 185 RU, antibody 6.25-100 nM
T2 construct: to the antigen (KRS 1-207 aa)
T2 sequence (Q15046 1-207): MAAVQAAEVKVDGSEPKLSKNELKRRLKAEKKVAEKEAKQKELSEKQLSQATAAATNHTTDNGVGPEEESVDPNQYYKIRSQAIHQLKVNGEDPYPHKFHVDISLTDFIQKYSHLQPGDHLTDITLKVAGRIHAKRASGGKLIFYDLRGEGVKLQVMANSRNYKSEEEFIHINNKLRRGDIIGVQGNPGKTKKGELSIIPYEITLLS
Procedure: The quantitative binding ability of the purified antibody proteins (N3 IgG and N5 IgG) to the antigen (KRS 1-207 aa) were measured using Biacore 2000 SPR (surface plasmon resonance) (GE healthcare, US) biosensor. After KRS was immobilized on a sensor chip (CM5, GE healthcare, US), antibody proteins (6.25-100 nM), which were serially diluted with HES buffer solution (10 mM HEPES, pH 7.4, 150 mM NaCl, 3 mM EDTA, 0.005% surfactant P20), were allowed to flow at a rate of 30 μl/min for 3 min, and 1 M NaCl/20 mM NaOH was allowed to flow at a rate of 30 μl/min for 3 min, thereby inducing the dissociation of proteins bound to the antigen. Mock IgG was used as control. Specific experiment conditions are as follows:
Immobilized level: 185 RU
Antibody: N3 IgG and N5 IgG
Running buffer: HBS-N buffer
Regeneration: 2 M NaCl, 20 mM NaOH (flow 30 ul/min 1 min)
The affinity was obtained from the kinetic rate constants (ka and kd) and equilibrium dissociation constants (KD) by using BIA evaluation ver. 3.2 software. FIGS. 6A-6B show SPR graph results of N3 IgG and N5 IgG, respectively. It was confirmed from FIGS. 6A-6B and Table 3 that N3 IgG and N5 IgG of the present invention has high specific binding ability to the KRS N-terminal region.

B1: N3 IgG: IgG converted from N3 scFv; VH SEQ ID NO: 49, VL SEQ ID NO: 51; binds KRS N-terminal region (antibody, V domains shown)
VH: EVQLLESGGGLVQPGGSLRLSCAASGFTFSSYDMSWVRQAPGKGLEWVSAISYDNGNTYYADSVKGRFTISRDNSKNTLYLQMNSLRAEDTAVYYSARMALDFDYWGQGTLVTVSS
VL: QSVLTQPPSASGTPGQRVTISCTGSSSNIGSNYVTWYQQLPGTAPKLLIYDNSNRPSGVPDRFSGSKSGTSASLAISGLRSEDEADYYCASWDDSLSAYVFGGGTKLTVL
For B1, the “cytotoxicity (MTT assay)” value [1] was “no cytotoxicity”, the “KRS level in the cell membrane” value [2] was “effectively reduced” and the “inhibition of LN421-dependent monocyte/macrophage migration” value [3] was “effectively inhibited”. For the same molecule, the “inhibition of cell migration” value [4] was “significantly inhibited”, the “KRS binding ability (western blotting and immunoprecipitation)” value [5] was “bound to KRS” and the Kd [6] was 83.4 nM. For the same molecule, the ka [6] was 109000 M⁻¹ s⁻¹ and the kd [6] was 0.009055 s⁻¹.

From US11685791B2, “Antibody binding specifically to N-terminal region of lysyl-tRNA synthetase exposed on cell membrane” (Zymedi Co., Ltd., priority 2017, dated 2023)
